Source: patent US10450368

Experiments:
[1] = molecular target: RSC3 delta371I; experiment: ELISA
[2] = molecular target: HIV-1 Env resurface core protein 3 (RSC3); experiment: direct-binding ELISA (OD450), panel 'RSC3'
[3] = molecular target: CH505.TF mutant gp120 M8 (HIV-1); experiment: direct-binding ELISA (OD450), panel 'CH505.TF gp120 M8'
[4] = molecular target: CH505.TF gp120 delta371I; experiment: direct-binding ELISA (OD450), panel 'CH505.TF gp120 delta371I'
[5] = molecular target: BG505 SOSIP.664 gp140 trimer (HIV-1); experiment: negative stain EM
[6] = molecular target: CH0505_CON D7gp120/293i; experiment: ELISA
[7] = molecular target: CH505.M10D8gp120; experiment: ELISA
[8] = molecular target: CH505.M11D8gp120/293F; experiment: ELISA
[9] = molecular target: CH505.M19D8gp120; experiment: ELISA
[10] = molecular target: CH505.M21D8gp120/293F; experiment: ELISA
[11] = molecular target: CH505.M5D8gp120293F; experiment: ELISA
[12] = molecular target: CH505.M7D8gp120/293F; experiment: ELISA
[13] = molecular target: CH505.M9D8gp120/293F; experiment: ELISA
[14] = molecular target: CH505.TF mutant gp120 M20 (HIV-1); experiment: ELISA
[15] = molecular target: CH505.TF mutant gp120 M6 (HIV-1); experiment: ELISA
[16] = molecular target: CH505.TF mutant gp120 M8 (HIV-1); experiment: ELISA
[17] = molecular target: CH505.w30.12D8gp120; experiment: ELISA
[18] = molecular target: CH505w020.14D8gp120; experiment: ELISA
[19] = molecular target: CH505w030.20D8gp120/293F; experiment: ELISA
[20] = molecular target: CH505w136.B18D8gp120; experiment: ELISA
[21] = molecular target: Centromere B (UniProt P07199); experiment: AtheNA, Ab 25 ug/ml
Sequence of Centromere B (P07199 whole entry): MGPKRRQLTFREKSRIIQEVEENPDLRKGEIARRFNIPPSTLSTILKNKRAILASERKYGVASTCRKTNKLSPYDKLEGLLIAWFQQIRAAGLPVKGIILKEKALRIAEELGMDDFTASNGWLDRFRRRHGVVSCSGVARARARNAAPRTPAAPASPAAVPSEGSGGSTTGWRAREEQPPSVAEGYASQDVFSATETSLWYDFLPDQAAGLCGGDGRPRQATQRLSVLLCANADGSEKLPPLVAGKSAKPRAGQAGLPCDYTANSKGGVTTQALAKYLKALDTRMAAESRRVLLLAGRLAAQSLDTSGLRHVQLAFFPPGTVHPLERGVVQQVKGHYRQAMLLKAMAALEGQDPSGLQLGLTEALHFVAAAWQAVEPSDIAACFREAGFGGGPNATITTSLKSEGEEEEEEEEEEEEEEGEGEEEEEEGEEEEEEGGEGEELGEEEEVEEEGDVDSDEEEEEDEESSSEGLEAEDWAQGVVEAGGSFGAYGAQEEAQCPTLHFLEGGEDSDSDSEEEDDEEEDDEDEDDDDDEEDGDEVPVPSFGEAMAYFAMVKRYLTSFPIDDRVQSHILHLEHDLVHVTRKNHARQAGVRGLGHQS

[22] = molecular target: Histones; experiment: AtheNA, Ab 25 ug/ml
[23] = molecular target: Jo-1 (UniProt P12081); experiment: AtheNA, Ab 25 ug/ml
Sequence of Jo-1 (P12081 whole entry): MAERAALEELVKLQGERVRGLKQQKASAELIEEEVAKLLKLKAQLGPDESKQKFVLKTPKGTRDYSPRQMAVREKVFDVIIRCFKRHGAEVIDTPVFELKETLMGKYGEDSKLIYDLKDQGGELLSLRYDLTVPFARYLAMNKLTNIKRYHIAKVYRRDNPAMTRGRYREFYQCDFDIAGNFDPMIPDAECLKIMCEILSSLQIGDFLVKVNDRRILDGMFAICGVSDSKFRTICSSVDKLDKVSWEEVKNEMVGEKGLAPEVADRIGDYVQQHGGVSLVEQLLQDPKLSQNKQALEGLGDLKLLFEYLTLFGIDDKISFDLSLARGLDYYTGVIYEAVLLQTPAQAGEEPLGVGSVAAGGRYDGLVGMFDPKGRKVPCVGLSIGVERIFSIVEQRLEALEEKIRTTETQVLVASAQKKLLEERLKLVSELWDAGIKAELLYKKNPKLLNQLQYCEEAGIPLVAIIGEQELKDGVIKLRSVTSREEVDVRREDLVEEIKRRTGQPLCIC

[24] = molecular target: RNP (ribonucleoprotein); experiment: AtheNA, Ab 25 ug/ml
[25] = molecular target: SSA; experiment: AtheNA, Ab 25 ug/ml
[26] = molecular target: SSB (UniProt P05455); experiment: AtheNA, Ab 25 ug/ml
Sequence of SSB (P05455 whole entry): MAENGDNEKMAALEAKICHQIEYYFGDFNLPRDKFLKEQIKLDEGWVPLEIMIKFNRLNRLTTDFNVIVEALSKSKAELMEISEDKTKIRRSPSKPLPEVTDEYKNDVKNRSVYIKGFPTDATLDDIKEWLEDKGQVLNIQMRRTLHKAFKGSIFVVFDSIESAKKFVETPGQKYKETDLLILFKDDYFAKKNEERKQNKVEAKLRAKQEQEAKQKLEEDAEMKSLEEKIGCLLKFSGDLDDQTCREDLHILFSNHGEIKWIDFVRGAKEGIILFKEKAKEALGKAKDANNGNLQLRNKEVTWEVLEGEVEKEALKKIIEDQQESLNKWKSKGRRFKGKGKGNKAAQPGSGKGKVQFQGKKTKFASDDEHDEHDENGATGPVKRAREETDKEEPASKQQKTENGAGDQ

[27] = molecular target: Scl-70 (UniProt P11387); experiment: AtheNA, Ab 25 ug/ml
Sequence of Scl-70 (P11387 whole entry): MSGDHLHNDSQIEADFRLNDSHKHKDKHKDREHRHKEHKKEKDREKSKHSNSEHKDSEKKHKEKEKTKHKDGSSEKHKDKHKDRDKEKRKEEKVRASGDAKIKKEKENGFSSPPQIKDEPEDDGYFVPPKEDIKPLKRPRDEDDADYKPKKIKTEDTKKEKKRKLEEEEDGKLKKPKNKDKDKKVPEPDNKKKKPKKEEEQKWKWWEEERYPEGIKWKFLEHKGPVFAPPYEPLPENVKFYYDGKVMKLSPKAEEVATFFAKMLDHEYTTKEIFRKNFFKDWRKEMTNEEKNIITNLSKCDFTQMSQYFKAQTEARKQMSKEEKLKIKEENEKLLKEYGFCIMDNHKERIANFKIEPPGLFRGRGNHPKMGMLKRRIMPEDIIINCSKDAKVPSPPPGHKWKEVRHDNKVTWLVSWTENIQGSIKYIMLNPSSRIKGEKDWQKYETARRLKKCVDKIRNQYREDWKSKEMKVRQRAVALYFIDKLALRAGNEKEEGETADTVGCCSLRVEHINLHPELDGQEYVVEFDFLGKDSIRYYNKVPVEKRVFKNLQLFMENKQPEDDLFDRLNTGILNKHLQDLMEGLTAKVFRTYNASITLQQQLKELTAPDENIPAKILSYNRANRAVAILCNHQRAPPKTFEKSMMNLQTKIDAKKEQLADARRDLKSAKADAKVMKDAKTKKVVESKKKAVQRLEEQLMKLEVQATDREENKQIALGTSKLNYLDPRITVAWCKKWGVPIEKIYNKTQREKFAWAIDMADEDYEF

[28] = molecular target: Sm (Smith antigen); experiment: AtheNA, Ab 25 ug/ml
[29] = molecular target: Histones; experiment: AtheNA, Ab 50 ug/ml
[30] = molecular target: Jo-1 (UniProt P12081); experiment: AtheNA, Ab 50 ug/ml
[31] = molecular target: SSA; experiment: AtheNA, Ab 50 ug/ml
[32] = molecular target: SSB (UniProt P05455); experiment: AtheNA, Ab 50 ug/ml
[33] = molecular target: Sm (Smith antigen); experiment: AtheNA, Ab 50 ug/ml
[34] = molecular target: Centromere B (UniProt P07199); experiment: AtheNA, Ab 12.5 ug/ml
[35] = molecular target: Histones; experiment: AtheNA, Ab 12.5 ug/ml
[36] = molecular target: Jo-1 (UniProt P12081); experiment: AtheNA, Ab 12.5 ug/ml
[37] = molecular target: RNP (ribonucleoprotein); experiment: AtheNA, Ab 12.5 ug/ml
[38] = molecular target: SSA; experiment: AtheNA, Ab 12.5 ug/ml
[39] = molecular target: SSB (UniProt P05455); experiment: AtheNA, Ab 12.5 ug/ml
[40] = molecular target: Scl-70 (UniProt P11387); experiment: AtheNA, Ab 12.5 ug/ml
[41] = molecular target: Sm (Smith antigen); experiment: AtheNA, Ab 12.5 ug/ml
[42] = molecular target: Centromere B (UniProt P07199); experiment: AtheNA, Ab 6.25 ug/ml
[43] = molecular target: Histones; experiment: AtheNA, Ab 6.25 ug/ml
[44] = molecular target: Jo-1 (UniProt P12081); experiment: AtheNA, Ab 6.25 ug/ml
[45] = molecular target: RNP (ribonucleoprotein); experiment: AtheNA, Ab 6.25 ug/ml
[46] = molecular target: SSA; experiment: AtheNA, Ab 6.25 ug/ml
[47] = molecular target: SSB (UniProt P05455); experiment: AtheNA, Ab 6.25 ug/ml
[48] = molecular target: Scl-70 (UniProt P11387); experiment: AtheNA, Ab 6.25 ug/ml
[49] = molecular target: Sm (Smith antigen); experiment: AtheNA, Ab 6.25 ug/ml
[50] = molecular target: HIV-1 CH505 transmitted/founder gp120 Env (HIV-1); experiment: competition ELISA, blocking of sCD4 binding to gp120
[51] = molecular target: HIV-1 CH505 transmitted/founder gp120 Env (HIV-1); experiment: competition ELISA, blocking of CH106 binding to gp120
[52] = molecular target: Centromere B (UniProt P07199); experiment: AtheNA, Ab 50 ug/ml
[53] = molecular target: RNP (ribonucleoprotein); experiment: AtheNA, Ab 50 ug/ml
[54] = molecular target: Centromere B (UniProt P07199); experiment: AtheNA, Ab 25 ug/ml; remark: listed apart in the source
[55] = molecular target: Histones; experiment: AtheNA, Ab 25 ug/ml; remark: listed apart in the source
[56] = molecular target: Jo-1 (UniProt P12081); experiment: AtheNA, Ab 25 ug/ml; remark: listed apart in the source
[57] = molecular target: RNP (ribonucleoprotein); experiment: AtheNA, Ab 25 ug/ml; remark: listed apart in the source
[58] = molecular target: SSA; experiment: AtheNA, Ab 25 ug/ml; remark: listed apart in the source
[59] = molecular target: SSB (UniProt P05455); experiment: AtheNA, Ab 25 ug/ml; remark: listed apart in the source
[60] = molecular target: Scl-70 (UniProt P11387); experiment: AtheNA, Ab 25 ug/ml; remark: listed apart in the source
[61] = molecular target: Sm (Smith antigen); experiment: AtheNA, Ab 25 ug/ml; remark: listed apart in the source
[62] = molecular target: Centromere B (UniProt P07199); experiment: AtheNA, Ab 50 ug/ml; remark: listed apart in the source
[63] = molecular target: Histones; experiment: AtheNA, Ab 50 ug/ml; remark: listed apart in the source
[64] = molecular target: Jo-1 (UniProt P12081); experiment: AtheNA, Ab 50 ug/ml; remark: listed apart in the source
[65] = molecular target: RNP (ribonucleoprotein); experiment: AtheNA, Ab 50 ug/ml; remark: listed apart in the source
[66] = molecular target: SSA; experiment: AtheNA, Ab 50 ug/ml; remark: listed apart in the source
[67] = molecular target: SSB (UniProt P05455); experiment: AtheNA, Ab 50 ug/ml; remark: listed apart in the source
[68] = molecular target: Scl-70 (UniProt P11387); experiment: AtheNA, Ab 50 ug/ml
[69] = molecular target: Sm (Smith antigen); experiment: AtheNA, Ab 50 ug/ml; remark: listed apart in the source

2G12 (antibody)
EC50 (read off the curve) [1]: 0.01 µg/mL
EC50 (read off the curve) [2]: 0.01 µg/mL
EC50 (read off the curve) [3]: 0.2 µg/mL
EC50 (read off the curve) [4]: 0.2 µg/mL

CH103 Fab
stoichiometry (Fabs per trimer) (Fabs per trimer) [5]: 3

CH235 IA1 (antibody)
LogAUC [6]: 6.89
LogAUC [7]: 7.08
LogAUC [8]: 2.85
LogAUC [9]: 2.78
LogAUC [10]: 0
LogAUC [11]: 9.18
LogAUC [12]: 0
LogAUC [13]: 0
LogAUC [14]: 0
LogAUC [15]: 6.1
LogAUC [16]: 0
LogAUC [17]: 2.4
LogAUC [18]: 6.52
LogAUC [19]: 4.82
LogAUC [20]: 2.36
AtheNA signal (relative luminescence units) [21]: 80
AtheNA signal (relative luminescence units) [22]: 99
AtheNA signal (relative luminescence units) [23]: 171
AtheNA signal (relative luminescence units) [24]: 67
AtheNA signal (relative luminescence units) [25]: 150
AtheNA signal (relative luminescence units) [26]: 197
AtheNA signal (relative luminescence units) [27]: 52
AtheNA signal (relative luminescence units) [28]: 110
AtheNA signal (relative luminescence units) [29]: 100
AtheNA signal (relative luminescence units) [30]: 176
AtheNA signal (relative luminescence units) [31]: 149
AtheNA signal (relative luminescence units) [32]: 217
AtheNA signal (relative luminescence units) [33]: 104
AtheNA signal (relative luminescence units) [34]: 81
AtheNA signal (relative luminescence units) [35]: 100
AtheNA signal (relative luminescence units) [36]: 152
AtheNA signal (relative luminescence units) [37]: 56
AtheNA signal (relative luminescence units) [38]: 151
AtheNA signal (relative luminescence units) [39]: 167
AtheNA signal (relative luminescence units) [40]: 40
AtheNA signal (relative luminescence units) [41]: 77
AtheNA signal (relative luminescence units) [42]: 87
AtheNA signal (relative luminescence units) [43]: 118
AtheNA signal (relative luminescence units) [44]: 129
AtheNA signal (relative luminescence units) [45]: 46
AtheNA signal (relative luminescence units) [46]: 175
AtheNA signal (relative luminescence units) [47]: 117
AtheNA signal (relative luminescence units) [48]: 31
AtheNA signal (relative luminescence units) [49]: 77
IC50 [50]: > 100 µg/mL
IC50 [51]: 82.4 µg/mL

CH235 IA2 (antibody)
LogAUC [6]: 4.77
LogAUC [7]: 0.43
LogAUC [8]: 0
LogAUC [9]: 0
LogAUC [10]: 0
LogAUC [11]: 6.95
LogAUC [12]: 0
LogAUC [13]: 0
LogAUC [14]: 0
LogAUC [15]: 1.22
LogAUC [16]: 0
LogAUC [17]: 0
LogAUC [18]: 1.22
LogAUC [19]: 0.53
LogAUC [20]: 0
AtheNA signal (relative luminescence units) [21]: 228
AtheNA signal (relative luminescence units) [22]: 302
AtheNA signal (relative luminescence units) [23]: 26
AtheNA signal (relative luminescence units) [24]: 93
AtheNA signal (relative luminescence units) [25]: 43
AtheNA signal (relative luminescence units) [26]: 36
AtheNA signal (relative luminescence units) [27]: 49
AtheNA signal (relative luminescence units) [28]: 256
AtheNA signal (relative luminescence units) [52]: 256
AtheNA signal (relative luminescence units) [29]: 371
AtheNA signal (relative luminescence units) [53]: 101
AtheNA signal (relative luminescence units) [33]: 259
AtheNA signal (relative luminescence units) [34]: 225
AtheNA signal (relative luminescence units) [35]: 287
AtheNA signal (relative luminescence units) [36]: 20
AtheNA signal (relative luminescence units) [37]: 85
AtheNA signal (relative luminescence units) [38]: 34
AtheNA signal (relative luminescence units) [39]: 31
AtheNA signal (relative luminescence units) [40]: 44
AtheNA signal (relative luminescence units) [41]: 279
AtheNA signal (relative luminescence units) [42]: 183
AtheNA signal (relative luminescence units) [43]: 207
AtheNA signal (relative luminescence units) [44]: 12
AtheNA signal (relative luminescence units) [45]: 66
AtheNA signal (relative luminescence units) [46]: 18
AtheNA signal (relative luminescence units) [47]: 15
AtheNA signal (relative luminescence units) [48]: 28
AtheNA signal (relative luminescence units) [49]: 204

DH270IA1 (antibody)
AtheNA signal [54]: 5
AtheNA signal [55]: 4
AtheNA signal [56]: 3
AtheNA signal [57]: 2
AtheNA signal [58]: 3
AtheNA signal [59]: 6
AtheNA signal [60]: 1
AtheNA signal [61]: 5
AtheNA signal [62]: 10
AtheNA signal [63]: 9
AtheNA signal [64]: 5
AtheNA signal [65]: 2
AtheNA signal [66]: 5
AtheNA signal [67]: 6
AtheNA signal [68]: 4
AtheNA signal [69]: 5
AtheNA signal [34]: 3
AtheNA signal [35]: 4
AtheNA signal [36]: 6
AtheNA signal [37]: 3
AtheNA signal [38]: 3
AtheNA signal [39]: 6
AtheNA signal [40]: 2
AtheNA signal [41]: 5
AtheNA signal [42]: 2
AtheNA signal [43]: 2
AtheNA signal [44]: 5
AtheNA signal [45]: 2
AtheNA signal [46]: 5
AtheNA signal [47]: 1
AtheNA signal [48]: 2
AtheNA signal [49]: 3
